Assay results published in patent US20200088729.

Key:
Assay in all cases: SPR
EED = EED (UniProt O75530); conditions: HBS-EP+, 3.25 mM MgCl2, 25 C
EZH2 = EZH2 (UniProt Q15910); conditions: HBS-EP+, 3.25 mM MgCl2, 25 C
SUZ12 = SUZ12 (UniProt Q15022); conditions: HBS-EP+, 3.25 mM MgCl2, 25 C
PTBP1 = PTBP1 (UniProt P26599); conditions: HBS-EP+, 3.25 mM MgCl2, 25 C
[1] = target: T1, HaloTag-DasherGFP-3xLambdaN-V5 (synthetic construct (lambda phage N peptide)) (UniProt P03045); conditions: ka 29700 1/Ms, kd 0.0012 1/s; HBS-EP+, 3.25 mM MgCl2, 25 C
T1 sequence: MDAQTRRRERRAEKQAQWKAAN

SUZ12, sequence (Q15022 whole entry): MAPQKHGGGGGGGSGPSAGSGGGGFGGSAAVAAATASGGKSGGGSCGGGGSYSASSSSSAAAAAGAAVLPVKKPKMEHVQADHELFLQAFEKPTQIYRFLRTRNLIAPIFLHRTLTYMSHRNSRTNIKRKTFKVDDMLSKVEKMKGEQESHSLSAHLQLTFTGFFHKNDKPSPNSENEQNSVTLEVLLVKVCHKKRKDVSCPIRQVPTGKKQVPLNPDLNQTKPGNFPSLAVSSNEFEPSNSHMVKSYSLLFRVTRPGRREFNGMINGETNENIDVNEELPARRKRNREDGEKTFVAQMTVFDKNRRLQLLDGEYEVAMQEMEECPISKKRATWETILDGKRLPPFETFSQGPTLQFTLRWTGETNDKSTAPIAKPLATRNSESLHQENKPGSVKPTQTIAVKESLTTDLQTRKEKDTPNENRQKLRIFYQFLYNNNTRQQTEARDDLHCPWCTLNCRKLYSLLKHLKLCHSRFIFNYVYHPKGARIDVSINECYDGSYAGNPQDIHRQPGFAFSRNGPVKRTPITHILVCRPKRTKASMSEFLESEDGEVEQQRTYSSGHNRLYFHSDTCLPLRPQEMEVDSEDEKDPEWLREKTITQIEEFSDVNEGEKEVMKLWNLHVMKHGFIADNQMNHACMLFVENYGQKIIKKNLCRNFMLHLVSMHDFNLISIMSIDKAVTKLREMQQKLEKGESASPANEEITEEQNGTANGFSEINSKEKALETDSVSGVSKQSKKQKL
PTBP1, sequence (P26599 whole entry): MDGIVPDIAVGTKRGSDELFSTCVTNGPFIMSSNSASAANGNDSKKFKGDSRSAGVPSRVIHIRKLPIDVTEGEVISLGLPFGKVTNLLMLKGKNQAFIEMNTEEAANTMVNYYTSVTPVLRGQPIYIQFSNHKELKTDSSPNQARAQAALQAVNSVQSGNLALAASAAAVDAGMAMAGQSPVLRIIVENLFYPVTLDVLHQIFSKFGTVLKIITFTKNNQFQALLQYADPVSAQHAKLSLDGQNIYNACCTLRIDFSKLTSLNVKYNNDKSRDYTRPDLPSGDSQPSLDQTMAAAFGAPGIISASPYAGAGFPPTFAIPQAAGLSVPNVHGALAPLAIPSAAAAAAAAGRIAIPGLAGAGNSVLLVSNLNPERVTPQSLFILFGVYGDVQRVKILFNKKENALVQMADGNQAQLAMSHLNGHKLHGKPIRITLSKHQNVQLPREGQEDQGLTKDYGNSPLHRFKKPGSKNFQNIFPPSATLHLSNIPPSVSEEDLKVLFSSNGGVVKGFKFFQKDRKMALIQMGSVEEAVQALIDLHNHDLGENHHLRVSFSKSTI
EZH2, sequence (Q15910 whole entry): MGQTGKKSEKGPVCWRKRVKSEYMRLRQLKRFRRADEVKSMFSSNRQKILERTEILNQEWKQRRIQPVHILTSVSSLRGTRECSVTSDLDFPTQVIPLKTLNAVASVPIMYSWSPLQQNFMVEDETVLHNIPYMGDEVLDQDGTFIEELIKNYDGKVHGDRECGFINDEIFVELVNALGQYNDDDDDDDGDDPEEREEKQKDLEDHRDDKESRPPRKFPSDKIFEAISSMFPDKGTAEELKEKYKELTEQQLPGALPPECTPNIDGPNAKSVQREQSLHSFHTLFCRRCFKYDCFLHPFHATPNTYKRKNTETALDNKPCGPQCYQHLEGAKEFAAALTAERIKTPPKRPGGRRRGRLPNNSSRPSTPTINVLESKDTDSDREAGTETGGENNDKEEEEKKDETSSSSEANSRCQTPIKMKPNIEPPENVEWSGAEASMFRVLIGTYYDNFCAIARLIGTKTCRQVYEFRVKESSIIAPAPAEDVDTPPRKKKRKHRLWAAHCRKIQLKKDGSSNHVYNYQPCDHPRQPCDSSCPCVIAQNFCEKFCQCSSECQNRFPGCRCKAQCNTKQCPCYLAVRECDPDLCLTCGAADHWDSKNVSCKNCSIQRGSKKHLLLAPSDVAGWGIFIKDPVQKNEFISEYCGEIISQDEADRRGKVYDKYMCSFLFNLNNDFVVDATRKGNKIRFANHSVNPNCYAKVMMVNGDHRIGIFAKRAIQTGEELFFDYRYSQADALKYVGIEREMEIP
EED, sequence (O75530 whole entry): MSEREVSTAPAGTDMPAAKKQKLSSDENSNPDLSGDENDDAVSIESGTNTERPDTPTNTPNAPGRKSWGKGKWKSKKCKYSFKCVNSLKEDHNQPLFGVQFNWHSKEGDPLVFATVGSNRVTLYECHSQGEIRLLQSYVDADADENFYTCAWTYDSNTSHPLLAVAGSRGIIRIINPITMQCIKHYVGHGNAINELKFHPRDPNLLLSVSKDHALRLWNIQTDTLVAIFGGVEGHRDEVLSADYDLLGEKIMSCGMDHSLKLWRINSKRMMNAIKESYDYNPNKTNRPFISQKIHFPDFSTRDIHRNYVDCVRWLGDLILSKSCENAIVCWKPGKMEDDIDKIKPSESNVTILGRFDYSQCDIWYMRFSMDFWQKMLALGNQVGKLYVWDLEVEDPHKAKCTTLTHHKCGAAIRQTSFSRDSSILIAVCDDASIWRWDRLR

Substance	Kd (EED) [µM]	Kd (EZH2; U-value 20) [µM]	Kd (SUZ12) [µM]	Kd (PTBP1) [µM]	Kd (EED; U-value 20) [µM]	Kd (EZH2) [µM]	Kd [1] [µM]	Kd (PTBP1; U-value 20) [µM]	Kd (SUZ12; U-value 26 flagged with asterisk (poor fit)) [µM]
Xist E-repeat RNA	1.1	13.2	60.6	0.0596	–	–	–	–	–
MBP-5xBoxB RNA	–	–	96.6	0.104	2.94	66	0.0393	–	–
MBP RNA (nt 1-240)	1.63	–	1.35	–	–	58.1	–	8.68	–
Xist A-repeat RNA	0.257	–	–	0.261	–	56	–	–	1.79
